In patent publication US20030235860A1, “Interactions between AR, ER, TR2, and TR4” (priority 1999, published 2003):
No end group written: not given here.

T1: interaction between the GAL4-ER and VPI6-TR2 (Homo sapiens, UniProt P03372, G400V)
T1 construct: GAL4-DBD fused with ER-LBD (GAL4-ER, aa 282 to 595); expressed in transfected cells; host or cells: H1299, PC-3
T1 sequence (P03372 282-595 G400V): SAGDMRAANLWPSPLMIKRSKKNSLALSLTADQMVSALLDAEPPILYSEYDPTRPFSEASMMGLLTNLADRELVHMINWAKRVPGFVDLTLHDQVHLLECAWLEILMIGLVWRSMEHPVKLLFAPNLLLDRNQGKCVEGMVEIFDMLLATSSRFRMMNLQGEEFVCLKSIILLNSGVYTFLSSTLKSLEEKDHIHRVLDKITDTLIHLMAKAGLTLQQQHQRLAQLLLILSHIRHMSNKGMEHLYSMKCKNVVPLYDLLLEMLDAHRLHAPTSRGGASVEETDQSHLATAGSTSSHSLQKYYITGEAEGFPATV
T1 sequence (P13056 1-603 partner): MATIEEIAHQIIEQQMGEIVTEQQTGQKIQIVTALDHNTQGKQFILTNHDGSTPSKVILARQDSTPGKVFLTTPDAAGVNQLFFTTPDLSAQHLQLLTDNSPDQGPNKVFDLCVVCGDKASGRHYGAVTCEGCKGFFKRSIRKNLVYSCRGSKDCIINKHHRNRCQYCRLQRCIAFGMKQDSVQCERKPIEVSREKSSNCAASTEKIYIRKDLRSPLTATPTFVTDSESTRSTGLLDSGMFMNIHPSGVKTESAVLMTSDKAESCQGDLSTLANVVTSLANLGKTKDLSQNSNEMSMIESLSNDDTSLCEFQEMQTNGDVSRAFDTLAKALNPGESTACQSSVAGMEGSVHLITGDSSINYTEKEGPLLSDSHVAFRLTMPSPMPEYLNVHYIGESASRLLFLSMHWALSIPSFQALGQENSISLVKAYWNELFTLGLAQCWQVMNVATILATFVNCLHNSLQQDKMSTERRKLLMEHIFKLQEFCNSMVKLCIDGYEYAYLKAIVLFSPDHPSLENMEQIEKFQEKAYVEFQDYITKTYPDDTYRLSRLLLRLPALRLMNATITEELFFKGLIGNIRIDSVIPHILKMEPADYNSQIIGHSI

T2: GR (Homo sapiens, UniProt P04150)
T2 construct: expressed in transfected cells; host or cells: H1299, PC-3 (pSG5-GR)
T2 sequence (P04150 1-777): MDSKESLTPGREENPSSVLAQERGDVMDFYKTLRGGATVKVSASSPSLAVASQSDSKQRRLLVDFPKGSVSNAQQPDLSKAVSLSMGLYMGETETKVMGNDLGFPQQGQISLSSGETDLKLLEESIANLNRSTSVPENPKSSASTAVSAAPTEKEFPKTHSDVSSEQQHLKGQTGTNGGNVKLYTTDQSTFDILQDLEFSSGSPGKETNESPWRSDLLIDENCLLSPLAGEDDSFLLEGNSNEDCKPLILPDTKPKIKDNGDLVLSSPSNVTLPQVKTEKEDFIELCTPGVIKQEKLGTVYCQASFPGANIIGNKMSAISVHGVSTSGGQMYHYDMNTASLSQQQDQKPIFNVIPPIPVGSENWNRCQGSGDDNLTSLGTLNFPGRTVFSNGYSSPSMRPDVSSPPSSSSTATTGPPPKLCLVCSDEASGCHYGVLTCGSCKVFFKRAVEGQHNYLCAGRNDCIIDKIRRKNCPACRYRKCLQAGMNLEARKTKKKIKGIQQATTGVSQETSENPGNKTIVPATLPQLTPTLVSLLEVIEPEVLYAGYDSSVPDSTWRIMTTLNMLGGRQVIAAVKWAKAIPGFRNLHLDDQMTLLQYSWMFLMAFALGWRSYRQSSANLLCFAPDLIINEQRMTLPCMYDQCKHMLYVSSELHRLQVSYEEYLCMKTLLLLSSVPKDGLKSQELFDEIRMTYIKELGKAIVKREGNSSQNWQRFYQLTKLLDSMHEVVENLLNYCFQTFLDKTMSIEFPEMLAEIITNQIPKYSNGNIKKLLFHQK


Tests used:
[1] = biological target: T1, interaction between the GAL4-ER and VPI6-TR2; assay: Mammalian two-hybrid assay GAL4-ER / VP16-TR2; type: cell-based; conditions: PC-3 cells; presence of E2; co-transfection of blocker plasmid
Experimental: Transfections were performed using the calcium-phosphate precipitation method described above. […] 3 μg of a VPI6-TR2 expression plasmid and 3 μg pG5-CAT reporter plasmid. CAT assays were performed as described above.
Cells were also transfected with a β-galactosidase expression plasmid, pCMV-β-gal, as an internal control for transfection efficiency.

GR = biological target: T2, GR; assay: GR-mediated transactivation (MMTV reporter); type: cell-based
Experimental: To eliminate the potential artificial effects caused by overexpression of exogenous ER, T47D cells were used as a model to test the TR2 suppression effect on the endogenous ER-mediated transactivation. T47D cells were transfected with 1 μg of ERE-CAT reporter plasmid together with increasing amounts of the TR2 expression plasmid. […] All of the cells also were transfected with a galactosidase expression plasmid, pCMV-β-gal to normalize the transfection efficiency. As expected, the TR2 can still repress the endogenous ER-mediated ERE-CAT activity (FIG. 8B). For a control, the potential suppression effect of the TR2 on other steroid receptors-mediated transactivation was also tested, such as PR or GR. H1299 cells were co-transfected with 1 μg of MMTV-CAT reporter plasmid and 1 μg of PR or GR expression plasmid together with increasing amounts of the TR2 expression vector. […] AU of the cells also were transfected with a β-galactosidase expression plasmid, pCMV-β-gal to normalize the transfection efficiency.
AR is known to be highly involved in prostate cancer progression, and both TR2 and AR are expressed in prostate cancer, therefore the TR2 effect on AR transactivation activity was analyzed.

Molecule | ER-TR2 interaction (GAL4-ER / VP16-TR2, pG5-CAT) [1] | GR-mediated transactivation (MMTV-CAT) (GR; H1299 cells, 10^−8 M glucocorticoid, increasing TR2) | GR-mediated transactivation (MMTV-CAT) (GR; PC-3 cells, 10 nM dexamethasone, pCMV-TR2) | GR-mediated transcription (MMTV-CAT) (GR; T47D cells, Example 2)
ER-#6: interaction blocker, ER fragment aa 312-340, as HA-tagged peptide, expression plasmid or cleaved peptide (ADQMVSALLDAEPPILYSEYDPTRPFSEA; also: HA tag (position not given here); UniProt P03372 312-340, looked up, fragment) | suppressed |  |  | 
TR2: human testicular orphan nuclear receptor 2, 603 amino acids (protein, UniProt P13056 1-603, looked up, full-length, human testicular orphan nuclear receptor 2, 603 amino acids) MATIEEIAHQIIEQQMGEIVTEQQTGQKIQIVTALDHNTQGKQFILTNHDGSTPSKVILARQDSTPGKVFLTTPDAAGVNQLFFTTPDLSAQHLQLLTDNSPDQGPNKVFDLCVVCGDKASGRHYGAVTCEGCKGFFKRSIRKNLVYSCRGSKDCIINKHHRNRCQYCRLQRCIAFGMKQDSVQCERKPIEVSREKSSNCAASTEKIYIRKDLRSPLTATPTFVTDSESTRSTGLLDSGMFMNIHPSGVKTESAVLMTSDKAESCQGDLSTLANVVTSLANLGKTKDLSQNSNEMSMIESLSNDDTSLCEFQEMQTNGDVSRAFDTLAKALNPGESTACQSSVAGMEGSVHLITGDSSINYTEKEGPLLSDSHVAFRLTMPSPMPEYLNVHYIGESASRLLFLSMHWALSIPSFQALGQENSISLVKAYWNELFTLGLAQCWQVMNVATILATFVNCLHNSLQQDKMSTERRKLLMEHIFKLQEFCNSMVKLCIDGYEYAYLKAIVLFSPDHPSLENMEQIEKFQEKAYVEFQDYITKTYPDDTYRLSRLLLRLPALRLMNATITEELFFKGLIGNIRIDSVIPHILKMEPADYNSQIIGHSI |  | little effect | less suppression effect | marginal effect
